Patent US20140322196A1

Key:
Experiment in all cases: cell-based or functional assay
[1] = target: Hemagglutinin (HA) of Influenza A virus A/Parma/5/06 (Wisconsin-like) H3N2 (Influenza A virus A/Parma/05/06 H3N2)
[2] = target: Hemagglutinin (HA) of Influenza A virus A/Puerto Rico/8/34 H1N1 (PR8 virus) (Influenza A virus A/Puerto Rico/8/34 H1N1) (UniProt P03452)
[3] = target: Hemagglutinin (HA) of Influenza A virus A/Roma-ISS/2/08 (Brisbane-like) (oseltamivir-sensitive) H1N1 (Influenza A virus A/RomaISS/2/08 H1N1)
[4] = target: Hemagglutinin (HA) of Influenza A virus A/Turkey/Italy/2676/99 H7N1 (Influenza A virus A/Turkey/Italy/2676/99 H7N1)

Row | Binder | activity on viral hemagglutination (HI) [1] | activity on viral hemagglutination (HI) [2] | activity on viral hemagglutination (HI) [3] | activity on viral hemagglutination (HI) [4]
1 | bLf C-lobe (aa 285-689) (protein) SFQLFGSPPGQRDLLFKDSALGFLRIPSKVDSALYLGSRYLTTLKNLRETAEEVKARYTRVVWCAVGPEEQKKCQQWSQQSGQNVTCATASTTDDCIVLVLKGEADALNLDGGYIYTAGKCGLVPVLAENRKSSKHSSLDCVLRPTEGYLAVAVVKKANEGLTWNSLKDKKSCHTAVDRTAGWNIPMGLIVNQTGSCAFDEFFSQSCAPGADPKSRLCALCAGDDQGLDKCVPNSKEKYYGYTGAFRCLAEDVGDVAFVKNDTVWENTNGESTADWAKNLNREDFRLLCLDGTRKPVTEAQSCHLAVAPNHAVVSRSDRAAHVKQVLLHQQALFGKNGKNCPDKFCLFKSETKNLLFNDNTECLAKLGGRPTYEEYLGTEYVTAIANLKKCSTSPLLEACAFLTR | 6 nM | 24 nM | 10 nM | 93.1 fM
2 | bLf C-lobe (aa 345-689) (protein) VVWCAVGPEEQKKCQQWSQQSGQNVTCATASTTDDCIVLVLKGEADALNLDGGYIYTAGKCGLVPVLAENRKSSKHSSLDCVLRPTEGYLAVAVVKKANEGLTWNSLKDKKSCHTAVDRTAGWNIPMGLIVNQTGSCAFDEFFSQSCAPGADPKSRLCALCAGDDQGLDKCVPNSKEKYYGYTGAFRCLAEDVGDVAFVKNDTVWENTNGESTADWAKNLNREDFRLLCLDGTRKPVTEAQSCHLAVAPNHAVVSRSDRAAHVKQVLLHQQALFGKNGKNCPDKFCLFKSETKNLLFNDNTECLAKLGGRPTYEEYLGTEYVTAIANLKKCSTSPLLEACAFLTR | 6 nM | 12 nM | 10 nM | 93.1 fM
